In US20150201663:

Molecular target: T1, E(Edans)-AAHAAK-(Dabcyl)-NH2 (not fully specified)
T1 chain: AAHAAK

B1: aspergillopepsin II (An01g00530) (protein)
chain: EDYSSNWAGAVLIGDGYTKVTGEFTVPSVSAGSSSSSGYGGGYGYYKNKRQSEEYCASAWVGIDGDTCETAILQTGVDFCYEDGQTSYDAWYEWYPDYAYDFNDITISEGDTIKVTVEATSKSSGSATVENLTTGQSVTHTFSGNVEGDLCETNAEWIVEDFESGDSLVAFADFGSVTFTNAEATSDGSTVGPSDATVMDIEQDGTVLTETSVSGDSVTVTYV
enzyme activity in relative fluorescent units (rfu) per minute per mg of protein; cleavage of FRET peptide at pH 4: yields by the highest rfu value for aspergillopepsin II | mass spectrometry of the substrate's cleavage fragments (E(Edans)-AAH and AAK-(Dabcyl)NH2): aspergillopepsin II cleaves histidine at the C-terminal in the E(Edans)-AAHAAK-(Dabcyl)NH2 substrate
